Source: US20220041711A1 (NGM BIOPHARMACEUTICALS, published 2022)

Legend:
[1] = target: T1, MSR1 expressed on transfected 293T cells (UniProt P21757 1-451, limits assumed); test: flow cytometry on 293T-MSR1 cells, Alexa647 anti-mouse IgG secondary
T1 construct: whole, on cells
T1 sequence (looked up): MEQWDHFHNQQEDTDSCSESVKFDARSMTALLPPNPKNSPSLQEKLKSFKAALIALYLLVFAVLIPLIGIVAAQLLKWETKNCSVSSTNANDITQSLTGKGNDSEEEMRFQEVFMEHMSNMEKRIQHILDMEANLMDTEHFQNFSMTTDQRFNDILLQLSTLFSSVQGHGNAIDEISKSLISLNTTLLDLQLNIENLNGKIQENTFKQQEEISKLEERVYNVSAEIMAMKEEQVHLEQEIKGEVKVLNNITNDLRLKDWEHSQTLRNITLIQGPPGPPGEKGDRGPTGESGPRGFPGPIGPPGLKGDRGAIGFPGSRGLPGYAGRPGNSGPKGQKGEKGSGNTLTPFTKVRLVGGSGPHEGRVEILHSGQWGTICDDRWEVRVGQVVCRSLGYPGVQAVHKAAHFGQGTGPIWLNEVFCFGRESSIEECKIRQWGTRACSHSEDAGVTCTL

[2] = target: T2, human MARCO (form in the assay not stated) (human, UniProt Q9UEW3 79-520, limits assumed); test: ELISA, FACS and IHC screening
T2 sequence: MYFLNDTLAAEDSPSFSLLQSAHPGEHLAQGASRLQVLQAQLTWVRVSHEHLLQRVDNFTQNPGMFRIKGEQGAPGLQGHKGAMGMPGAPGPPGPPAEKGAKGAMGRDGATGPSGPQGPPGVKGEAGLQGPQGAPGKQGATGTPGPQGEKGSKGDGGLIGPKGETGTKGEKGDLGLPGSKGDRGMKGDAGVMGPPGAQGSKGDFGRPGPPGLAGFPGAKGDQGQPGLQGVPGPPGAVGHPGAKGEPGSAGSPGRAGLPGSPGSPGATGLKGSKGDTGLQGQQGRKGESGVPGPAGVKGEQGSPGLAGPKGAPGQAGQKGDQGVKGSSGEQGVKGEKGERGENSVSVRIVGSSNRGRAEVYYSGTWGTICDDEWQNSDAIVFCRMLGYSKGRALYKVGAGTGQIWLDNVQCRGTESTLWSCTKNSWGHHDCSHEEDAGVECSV

[3] = target: T3, collagen 17A1 (COL17A1) expressed on 721.221 cells (UniProt Q9UMD9 1-1497, limits assumed); test: IHC on 721.221 stable cell lines; '-' = no detectable signal
T3 construct: whole, on cells
T3 sequence (looked up): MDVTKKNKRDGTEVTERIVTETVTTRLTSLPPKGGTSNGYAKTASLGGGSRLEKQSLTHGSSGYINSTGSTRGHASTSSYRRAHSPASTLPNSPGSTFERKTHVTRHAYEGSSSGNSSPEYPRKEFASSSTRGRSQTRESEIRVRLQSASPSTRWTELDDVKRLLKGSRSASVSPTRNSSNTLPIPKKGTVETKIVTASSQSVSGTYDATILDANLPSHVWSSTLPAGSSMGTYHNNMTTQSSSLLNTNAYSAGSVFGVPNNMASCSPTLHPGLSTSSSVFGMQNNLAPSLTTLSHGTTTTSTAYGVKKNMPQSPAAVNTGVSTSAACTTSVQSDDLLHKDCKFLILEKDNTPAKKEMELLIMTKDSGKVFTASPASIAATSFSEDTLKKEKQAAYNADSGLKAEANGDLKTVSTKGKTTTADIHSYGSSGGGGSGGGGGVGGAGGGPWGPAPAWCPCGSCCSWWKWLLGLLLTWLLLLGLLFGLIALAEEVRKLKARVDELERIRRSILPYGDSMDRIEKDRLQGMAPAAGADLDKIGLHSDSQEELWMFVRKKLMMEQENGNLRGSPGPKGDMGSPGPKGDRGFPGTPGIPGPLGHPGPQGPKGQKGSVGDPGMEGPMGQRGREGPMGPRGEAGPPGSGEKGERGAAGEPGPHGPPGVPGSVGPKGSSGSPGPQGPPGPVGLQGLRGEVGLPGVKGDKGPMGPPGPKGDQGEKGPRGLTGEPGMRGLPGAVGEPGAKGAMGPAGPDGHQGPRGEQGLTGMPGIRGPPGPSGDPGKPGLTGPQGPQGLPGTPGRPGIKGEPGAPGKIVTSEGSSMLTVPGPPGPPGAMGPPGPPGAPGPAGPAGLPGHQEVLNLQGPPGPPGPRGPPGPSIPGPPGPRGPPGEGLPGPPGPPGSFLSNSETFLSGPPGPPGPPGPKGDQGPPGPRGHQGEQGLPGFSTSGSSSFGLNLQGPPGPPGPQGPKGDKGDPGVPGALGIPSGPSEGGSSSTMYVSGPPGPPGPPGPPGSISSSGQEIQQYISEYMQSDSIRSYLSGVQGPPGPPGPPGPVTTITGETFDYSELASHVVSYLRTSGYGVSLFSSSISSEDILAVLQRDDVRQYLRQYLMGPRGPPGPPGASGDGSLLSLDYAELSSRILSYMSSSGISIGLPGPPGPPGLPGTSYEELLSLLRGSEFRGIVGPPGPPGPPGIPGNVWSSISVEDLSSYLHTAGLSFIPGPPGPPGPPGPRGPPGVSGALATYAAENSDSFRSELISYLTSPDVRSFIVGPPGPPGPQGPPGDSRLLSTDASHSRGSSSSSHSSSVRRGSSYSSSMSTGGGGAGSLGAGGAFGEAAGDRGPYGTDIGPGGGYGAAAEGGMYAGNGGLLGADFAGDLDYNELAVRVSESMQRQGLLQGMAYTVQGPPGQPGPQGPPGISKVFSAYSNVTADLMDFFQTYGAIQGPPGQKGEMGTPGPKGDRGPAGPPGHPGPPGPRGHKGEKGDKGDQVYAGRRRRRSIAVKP

[4] = target: T4, CD163L expressed on transfected 293T cells (UniProt Q9NR16 41-1453); test: flow cytometry on 293T-CD163L cells, Alexa647 anti-mouse IgG secondary
T4 construct: whole, on cells

[5] = target: T5, human MARCO expressed on cells (721.221-MARCO, 293T-MARCO) (human, UniProt Q9UEW3 1-520); test: flow cytometry, antibody at 2.5 µg/mL, Alexa647 anti-mouse IgG secondary
T5 construct: also called 721.221 cells expressing MARCO
T5 sequence: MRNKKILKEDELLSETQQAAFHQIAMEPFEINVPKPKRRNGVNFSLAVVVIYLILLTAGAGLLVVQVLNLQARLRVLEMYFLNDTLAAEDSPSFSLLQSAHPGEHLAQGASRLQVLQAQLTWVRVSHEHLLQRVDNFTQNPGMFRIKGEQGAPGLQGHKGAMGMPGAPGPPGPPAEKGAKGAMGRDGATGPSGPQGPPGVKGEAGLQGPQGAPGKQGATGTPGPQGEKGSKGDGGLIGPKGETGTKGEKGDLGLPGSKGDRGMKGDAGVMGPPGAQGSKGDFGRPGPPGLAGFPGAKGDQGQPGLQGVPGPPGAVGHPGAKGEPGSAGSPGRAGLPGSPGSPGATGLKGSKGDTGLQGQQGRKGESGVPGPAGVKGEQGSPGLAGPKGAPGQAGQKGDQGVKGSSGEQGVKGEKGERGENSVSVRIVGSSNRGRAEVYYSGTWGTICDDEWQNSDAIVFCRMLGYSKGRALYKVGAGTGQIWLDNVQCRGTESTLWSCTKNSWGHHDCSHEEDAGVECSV

[6] = target: T6, COL13A1 expressed on transfected 293T cells (UniProt Q5TAT6 1-717, limits assumed); test: IHC on 293T-transfected cell pellets; '-' = no detectable signal
T6 construct: whole, on cells

[7] = target: T7, SCARA5 expressed on transfected 293T cells (UniProt Q6ZMJ2 1-495, limits assumed); test: flow cytometry on 293T-SCARA5 cells, Alexa647 anti-mouse IgG secondary
T7 construct: whole, on cells
T7 sequence (Q6ZMJ2 whole entry): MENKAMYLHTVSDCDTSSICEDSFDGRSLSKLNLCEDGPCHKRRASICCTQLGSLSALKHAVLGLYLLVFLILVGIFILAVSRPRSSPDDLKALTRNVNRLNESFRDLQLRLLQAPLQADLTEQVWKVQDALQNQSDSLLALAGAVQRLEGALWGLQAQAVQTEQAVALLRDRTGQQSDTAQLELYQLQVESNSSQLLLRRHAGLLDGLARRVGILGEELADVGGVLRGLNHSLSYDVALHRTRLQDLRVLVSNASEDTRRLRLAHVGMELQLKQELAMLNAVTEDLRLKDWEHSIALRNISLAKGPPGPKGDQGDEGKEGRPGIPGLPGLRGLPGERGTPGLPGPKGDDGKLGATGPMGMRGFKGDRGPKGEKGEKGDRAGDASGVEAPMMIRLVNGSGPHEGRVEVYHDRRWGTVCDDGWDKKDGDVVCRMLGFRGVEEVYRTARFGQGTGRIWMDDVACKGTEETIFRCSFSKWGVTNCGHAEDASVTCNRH

T6 sequence (Q5TAT6 whole entry): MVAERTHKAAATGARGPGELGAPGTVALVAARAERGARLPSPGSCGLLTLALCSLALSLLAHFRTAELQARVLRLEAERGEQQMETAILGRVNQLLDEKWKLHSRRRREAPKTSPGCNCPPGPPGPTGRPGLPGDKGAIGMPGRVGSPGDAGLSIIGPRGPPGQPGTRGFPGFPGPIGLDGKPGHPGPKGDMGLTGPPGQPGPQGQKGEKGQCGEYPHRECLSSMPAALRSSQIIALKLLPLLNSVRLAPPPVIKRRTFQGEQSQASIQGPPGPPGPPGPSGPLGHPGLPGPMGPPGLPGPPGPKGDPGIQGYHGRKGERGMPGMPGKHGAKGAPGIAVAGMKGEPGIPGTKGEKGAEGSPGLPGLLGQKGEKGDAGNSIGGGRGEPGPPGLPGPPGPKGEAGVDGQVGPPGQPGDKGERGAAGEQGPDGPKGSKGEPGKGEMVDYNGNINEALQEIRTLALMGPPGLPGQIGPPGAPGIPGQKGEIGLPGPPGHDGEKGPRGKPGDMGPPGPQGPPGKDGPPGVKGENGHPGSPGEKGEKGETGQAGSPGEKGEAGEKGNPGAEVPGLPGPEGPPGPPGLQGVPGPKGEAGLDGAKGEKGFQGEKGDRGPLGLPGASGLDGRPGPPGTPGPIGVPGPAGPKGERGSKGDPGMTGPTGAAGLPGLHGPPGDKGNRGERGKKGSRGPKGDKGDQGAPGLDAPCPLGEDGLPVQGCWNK
T4 sequence (Q9NR16 41-1453): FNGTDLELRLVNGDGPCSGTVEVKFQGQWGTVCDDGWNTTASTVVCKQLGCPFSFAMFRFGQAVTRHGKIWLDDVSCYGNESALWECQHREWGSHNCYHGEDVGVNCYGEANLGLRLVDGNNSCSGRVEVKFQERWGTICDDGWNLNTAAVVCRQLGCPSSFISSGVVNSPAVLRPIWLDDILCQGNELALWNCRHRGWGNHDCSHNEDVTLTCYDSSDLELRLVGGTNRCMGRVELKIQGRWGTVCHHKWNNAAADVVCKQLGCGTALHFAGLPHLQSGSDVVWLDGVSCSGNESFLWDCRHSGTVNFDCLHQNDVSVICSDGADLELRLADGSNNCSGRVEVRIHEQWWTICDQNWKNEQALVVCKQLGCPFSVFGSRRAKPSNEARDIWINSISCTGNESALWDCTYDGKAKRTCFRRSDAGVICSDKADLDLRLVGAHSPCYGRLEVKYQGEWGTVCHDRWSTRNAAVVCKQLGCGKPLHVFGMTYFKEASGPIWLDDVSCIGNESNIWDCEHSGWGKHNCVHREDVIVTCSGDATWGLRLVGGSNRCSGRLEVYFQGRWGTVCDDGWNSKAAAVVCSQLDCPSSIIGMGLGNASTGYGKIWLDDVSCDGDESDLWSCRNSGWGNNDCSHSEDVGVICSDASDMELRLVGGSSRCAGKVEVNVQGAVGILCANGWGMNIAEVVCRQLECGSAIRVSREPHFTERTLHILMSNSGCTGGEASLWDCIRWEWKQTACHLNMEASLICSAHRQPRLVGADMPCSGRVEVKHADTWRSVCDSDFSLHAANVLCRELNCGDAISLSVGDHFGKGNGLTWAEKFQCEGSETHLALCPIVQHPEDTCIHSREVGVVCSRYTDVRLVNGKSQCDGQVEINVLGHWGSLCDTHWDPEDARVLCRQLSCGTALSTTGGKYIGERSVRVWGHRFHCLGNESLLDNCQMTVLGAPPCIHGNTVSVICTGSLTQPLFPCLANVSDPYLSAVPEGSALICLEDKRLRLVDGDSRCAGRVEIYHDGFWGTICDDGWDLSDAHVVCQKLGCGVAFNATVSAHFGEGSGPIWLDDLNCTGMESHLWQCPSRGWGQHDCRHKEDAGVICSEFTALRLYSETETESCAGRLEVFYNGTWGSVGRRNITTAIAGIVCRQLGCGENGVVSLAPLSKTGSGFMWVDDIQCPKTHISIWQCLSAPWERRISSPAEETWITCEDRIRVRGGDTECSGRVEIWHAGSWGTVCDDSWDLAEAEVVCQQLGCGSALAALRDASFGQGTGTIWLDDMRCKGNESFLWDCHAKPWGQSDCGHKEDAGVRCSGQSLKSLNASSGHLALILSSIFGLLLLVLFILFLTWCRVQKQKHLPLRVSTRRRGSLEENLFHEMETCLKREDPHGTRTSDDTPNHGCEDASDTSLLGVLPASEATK

B1: anti-MARCO antibody 10G4 (antibody, mouse IgG2a, kappa)
heavy: QVQLKESGPGLVAPSQSLSITCTVSGFSLSSYPISWVRQPPGKGLEWLGIIWTGGGTNYNSALKSRLSISKDNSKSQVFLKMNSLQTDDTARYYCASQNWDVNSALDYWGQGTSVTVSSAKTTAPSVYPLAPVCGDTTGSSVTLGCLVKGYFPEPVTLTWNSGSLSSGVHTFPAVLQSDLYTLSSSVTVTSSTWPSQSITCNVAHPASSTKVDKKIEPRGPTIKPCPPCKCPAPNAAGGPSVFIFPPKIKDVLMISLSPIVTCVVVDVSEDDPDVQISWFVNNVEVHTAQTQTHREDYNSTLRVVSALPIQHQDWMSGKEFKCKVNNKDLGAPIERTISKPKGSVRAPQVYVLPPPEEEMTKKQVTLTCMVTDFMPEDIYVEWTNNGKTELNYKNTEPVLDSDGSYFMYSKLRVEKKNWVERNSYSCSVVHEGLHNHHTTKSFSRTPGK
light: DIQMTQSPASLSVSVGETVTITCRASENIYSNLAWYQQKQGKSPQLLVYTATNLADGVPSRFSGSGSGTQYSLRINRLQSEDFGNYYCQHFWNAPWTFGGGTKLEIKRADAAPTVSIFPPSSEQLTSGGASVVCFLNNFYPKDINVKWKIDGSERQNGVLNSWTDQDSKDSTYSMSSTLTLTKDEYERHNSYTCEATHKTSTSPIVKSFNRNEC
notes: detected with anti-mouse IgG; copies: 2 + 2
B1: no binding (tested: 2.5 µg/mL) [1]; binds [2]; no binding [3]. B1: no binding (tested: 2.5 µg/mL) [4]; binds [5]; no binding [6]. B1: no binding (tested: 2.5 µg/mL) [7].

B2: anti-MARCO antibody 6D8 (antibody, mouse IgG2a, kappa)
heavy: QVQLKESGPGLVAPSQSLSIACTVSGFSLTNYAISWVRQPPGKGLEWLGVIWTGGGTNYNSTLKSRLSISKDNSKSQVFLKMNSLQTDDTARYNCARNSGDWYFDVWGPGTTVTVSSAKTTAPSVYPLAPVCGDTTGSSVTLGCLVKGYFPEPVTLTWNSGSLSSGVHTFPAVLQSDLYTLSSSVTVTSSTWPSQSITCNVAHPASSTKVDKKIEPRGPTIKPCPPCKCPAPNAAGGPSVFIFPPKIKDVLMISLSPIVTCVVVDVSEDDPDVQISWFVNNVEVHTAQTQTHREDYNSTLRVVSALPIQHQDWMSGKEFKCKVNNKDLGAPIERTISKPKGSVRAPQVYVLPPPEEEMTKKQVTLTCMVTDFMPEDIYVEWTNNGKTELNYKNTEPVLDSDGSYFMYSKLRVEKKNWVERNSYSCSVVHEGLHNHHTTKSFSRTPGK
light: DIVMSQSPSSLAVSVGEKVTMSCKSSQSLLYSSNQKNYLAWYQQKPGQSPHLLIYWASTRESGVPDRFIGSGSGTDFTLTISSVKAEDLAVYYCQQYYDYPPTFGSGTKLEIKRADAAPTVSIFPPSSEQLTSGGASVVCFLNNFYPKDINVKWKIDGSERQNGVLNSWTDQDSKDSTYSMSSTLTLTKDEYERHNSYTCEATHKTSTSPIVKSFNRNEC
notes: as for B1
B2: no binding (tested: 2.5 µg/mL) [1]; binds [2]; no binding [3]. B2: no binding (tested: 2.5 µg/mL) [4]; binds [5]; no binding [6]. B2: no binding (tested: 2.5 µg/mL) [7].

B3: anti-MARCO antibody 15A3 (antibody, mouse IgG2a, kappa)
heavy: EIQLQQSGPELVKPGASVKVSCKASGYSFTDYNMYWVKQSHGKSLEWIGYIDPYNGGTSYNQKFKGKATLTVDKSSSTAFMHLNSLTSEDSAVYYCARLRSPYDYDRGDYVMDYWGQGTSVTVSSAKTTAPSVYPLAPVCGDTTGSSVTLGCLVKGYFPEPVTLTWNSGSLSSGVHTFPAVLQSDLYTLSSSVTVTSSTWPSQSITCNVAHPASSTKVDKKIEPRGPTIKPCPPCKCPAPNAAGGPSVFIFPPKIKDVLMISLSPIVTCVVVDVSEDDPDVQISWFVNNVEVHTAQTQTHREDYNSTLRVVSALPIQHQDWMSGKEFKCKVNNKDLGAPIERTISKPKGSVRAPQVYVLPPPEEEMTKKQVTLTCMVTDFMPEDIYVEWTNNGKTELNYKNTEPVLDSDGSYFMYSKLRVEKKNWVERNSYSCSVVHEGLHNHHTTKSFSRTPGK
light: DIVLTQSPASLAVSLGQRATISCRASKSVSTSGYTYMHWYQQKPGQPPKLLIYLASNLESGVPARFSGSGSGTDFTLNIHPVEEEDAATYYCQHSRELPLTFGAGTKLELKRADAAPTVSIFPPSSEQLTSGGASVVCFLNNFYPKDINVKWKIDGSERQNGVLNSWTDQDSKDSTYSMSSTLTLTKDEYERHNSYTCEATHKTSTSPIVKSFNRNEC
notes: as for B1
B3: no binding (tested: 2.5 µg/mL) [1]; binds [2]; no binding [3]. B3: no binding (tested: 2.5 µg/mL) [4]; binds [5]; no binding [6]. B3: no binding (tested: 2.5 µg/mL) [7].
